Data: a protein production outcome set (Wang et al. 2014)

Experiment: label from the status in PepcDB records

Sequence: MFGFFSPAPAIPRLPKDKVSSAYKAYRIRMFLMIFIGYTGYYLVRKNFAVASPYLIDNYGFSKTQIGLISMGLAVSYGLSKFILGNLSDKSNVKKFICFGLIASSVLSVLMGFARTVPIFLILMVFNGFFQGMGAPPCSIVLGKWFSQKERGLKMGIWNTSHNIGGGLIAPIATLCLLVFGQNHFQSIFFVPAIICTIVALFCYVIGADTPASVGLPPVEEYRNDYPEVKAEVNPTTLSSKEIMVKYVLKNKYVWYLALANIFVYLIRQGVVNWIPIYLKESKGFSAANANWAMFLFEYAAIPASILLGWLSDVVFKGKRAPLSILCMIGVIFATVAYWQTSSTLVTMISVAFIGCFIYGPQLLIGMNLIDVVPNFAVGSATGFSGLCGYLLGEFMADFVLGMIADSFGWNGAFIFIIVGAFIALLLLALTLKIKKNPQVEDKIA
- protein production: failed

Sequence: MTYKITTSESKKEYLYMGSGDTRGESSLVAKPIEIILNKLPHAILAQQQFQKYITSPIYRYLSKLLLFREVAWPESTKDTQKGQVGIFSFQNNYADSATTFRILAHLDEHGYPLPNGAAEKNLPSLFEGFKATVSIIQQRLLLDNVDGATNSDKEKYVQLPDINTGFVNKTYSRIDLTHLLEDVETNVENLSINKTLEMDELTRLDSMINELESRKLKILERVKHIDSKSTNLENDVTLIKDRINFIEEYNLEADREQSLRKQMEEERSSEASSFTQNEEAISSLCDVESKDTRLKDFYKMPHEKSHDKNRQIISETYSRNTTAFRMTIPHGEHGNSITALDFDTPWGTLCSSSYQDRIVKVWDLNHGIQVGELPGHLATVNCMQIDKKNYNMLITGSKDATLKLWDLNLSREIYLDHSPLKEKTEEIVTPCIHNFELHKDEITALSFDSEALVSGSRDKKIFHWDLTTGKCIQQLDLIFTPTHSDIKMPARSLNNGACLLGTEAPMIGALQCYNSALATGTKDGIVRLWDLRVGKPVRLLEGHTDGITSLKFDSEKLVTGSMDNSVRIWDLRTSSILDVIAYDLPVSSLDFDGKLITVGANEGGVNVFNMERDEHWMTPEPPHSLDGDELSRRIAIVKYKDGFLINGHNDGDINVWTL
- protein production: failed

Sequence: MSLANRIRLHIWGDYACFTRPEMKVERVSYDVITPSAARGILSAIHWKPAINWVIDKIYVLKPIRFESVRRNELGAKISESKVSGAMKRKSVADLYTVIEDDRQQRAATVLKDVAYVIEAHAVMTSKAGVDENTTKHIEMFKRRALKGQCFQQPCMGVREFPAHFALIDDNDPLPLSQLSESEFNRDLGWMLHDIDFEHGNTPHFFRAELKNGVIDVPPFYAEEVKREGHHHHHH
- protein production: not failed

Sequence: KDADHIHHLIDQSLIAKGFQEILTNSLTKGAYNELLSKQEDAVPILNKLSEELAFMRPSLAFTGLETVAYNINRRQKNLKLFEWGKVYFKRGTKYNEYNRLSVFITGNQHAESWNTPSKTVDFFDMKAVVVQILEKLHIAVTQVQEIESNPLFSKGVIYKHAGKELVQFGYISQAALKATDVKQEVLFADFNADLLLELYSNKSKYKEIS
- protein production: not failed

Sequence: MALEQTLKKDWYSILGADPSANMSDLKQKYQKLILLYHPDKQSADVPAGTMEECMQKFIEIDQAWKILGNEETKKKYDLQR
- protein production: not failed

Sequence: QKKDTSNHFHVFVGDLSPEITTEDIKAAFAPFGRISDARVVKDMATGKSKGYGFVSFFNKWDAENAIQQMGGQWLGGRQIRTNWATRKPPAPKSTYESNTKQ
- protein production: not failed

Sequence: MGKSDFLSPKAIANRIKSKGLQKLRWYCQMCQKQCRDENGFKCHCMSESHQRQLLLASENPQQFMDYFSEEFRNDFLELLRRRFGTKRVHNNIVYNEYISHREHIHMNATQWETLTDFTKWLGREGLCKVDETPKGWYIQYIDRDPETIRRQLELEKKKKQDLDDEEKTAKFIEEQVRRGLEGKEQETPVFTELS
- protein production: not failed

Sequence: MGHHHHHHSHMPQFSPSYSFPVQIYYEDTDFSGVVYHPNFLKYFERAREHVIGAEQLRNLWQQQQLGFAVYRSDMLCHEGVEFADIIDIRTKFYFESKYRTVWHQEIWRPNGKKPAVTATIEMVCMNQARQLAPMPAELITQLSLGM
- protein production: not failed

Sequence: MGFLDKVEKSIEGAVSGVFARAFRGEVEPVEIAGRLQRELDSEAQILSRDKSLVPNDFVVRLSSRDYERLVPYTKTLNAEIIPTLRDHASERHYVFNGPIHIRYDLDDALPVGKFTVLTGENHAKAVSDRRAPLVLEVDGVRHPLTPPGLTIGRGSDADIRINDPGISRLHARINVWPQGNDIGLSIEDLDSTNGVTVNGVKVTSTELGDGSRIEIGSTRMLVHSPTRI
- protein production: failed

Sequence: MARYLVVAHRTAKSPELAAKLKELLAQDPEARFVLLVPAVPPPGWVYEENEVRRRAEEEAAAAKRALEAQGIPVEEAKAGDISPLLAIEEELLAHPGAYQAIVLSTLPPGPSRWLRLDVHTQAERFGLPVIHVIAQAA
- protein production: not failed

Sequence: GGEVHAAWHLRYAGRDFFVKCDERELLPGFTAEADQLELLSRSKTVTVPKVWAVGADRDYSFLVMDYLPPRPLDAHSAFILGQQIARLHQWSDQPQFGLDFDNALSTTPQPNTWQRRWSTFFAEQRIGWQLELAAEKGIAFGNIDAIVEHIQQRLASHQPQPSLLHGDLWSGNCALGPDGPYIFDPACYWGDRECDLAMLPLHTEQ
- protein production: failed

Sequence: DQKGDKVVIRGNNYVSIATGLNWYLKYYAGIHLSWNGMQAKLPAVLPPVTKKERRETTLPYRYDLNYCTFSYSMAFWDWNRWEKEIDWMALHGINIPLAVTGAEAVWHNVLDKLGYTKTEINEFISGPGFFAWWLMNNLEGWGGPNPDSWYTRQIALQKKILKRMREYGIEPVLPGYCGMVPHNAKEKLGLNVSDPGTWCGYRRPAFLQPSDPRFEEISSLYYKELEKLYGKANFYSMDPFHEGGNTAGVDLDAAGKAVMKAMKKANPKAVWVAQAWQANPRPKMIENLKAGDLLILDLTSECRPQWGDSTSEWYRKNGYGQHDWIYCMLLNYGGNVGLHGKMDNVIDNFYLAKADPHASATLKGVGMTPEGIENNPVMYELVMELPWRPDRFTKEEWLKEYVKARYGVDDPVVQAAWTNLANSIYNSPKNLTQQGTHESVFCARPAEDVYQVSSWSEMKDYYRPQEVIEAARLMVSVADRFKGNNNFEYDLVDIVRQALAEKGRLMQKAVTAAYRAGDKQLFALASGKFLDLILLQDKLLGTRPEFRVGKWIEEARALGDTPEEKELYEWNARVQITTWGNRNAADYGGLRDYAHKEWNGLLKDFYYMRWKLYFDFLSQRIEGKTPAEIDFYAIEEPWTKAANPYSAEAEGDCIEVAKQVMQAVE
- protein production: failed

Sequence: MSDNSKTRVVVGMSGGVDSSVTALLLKEQGYDVIGIFMKNWDDTDENGVCTATEDYKDVVAVADQIGIPYYSVNFEKEYWDRVFEYFLAEYRAGRTPNPDVMCNKEIKFKAFLDYAITLGADYVATGHYARVARDEDGTVHMLRGVDNGKDQTYFLSQLSQEQLQKTMFPLGHLEKPEVRRLAEEAGLSTAKKKDSTGICFIGEKNFKNFLSNYLPAQPGRMMTVDGRDMGEHAGLMYYTIGQRGGLGIGGQHGGDNAPWFVVGKDLSKNILYVGQGFYHDSLMSTSLEASQVHFTREMPEEFTLECTAKFRYRQPDSKVTVHVKGEKTEVIFAEPQRAITPGQAVVFYDGEECLGGGLIDNAYRDGQVCQYI
- protein production: not failed

Sequence: SYNYNIKRRIAEKAAELVQDNDTIMIESGSTCALLAEVLCQTKRNIKVITNSCFIANYIRQYSSCQIILLGGYYQPNSEVTVGPLLKEMISLFHVNRVFVGTDGFNKDLGFMGKDMMRSEGVRYMADAAEEVVILTDSSKFSKTSLVHQLSLADVNRVITDQALDKQTQELLSASGLVLDFVS
- protein production: failed

Sequence: RGLALCREHYLDWFVKETERAIRRHRMLLPGERVLVAVSGGKDSLALWDVLSRLGYQAVGLHIELGIGEYSKRSLEVTQAFARERGLELLVVDLKEAYGFGVPELARLSGRVACSACGLSKRYIINQVAVEEGFRVVATGHNLDDEAAVLFGNLLNPQEETLSRQGPVLPEKPGLAARVKPFYRFSEREVLSYTLLRGIRYLHEEC
- protein production: failed

Sequence: MNLLIENIRGISYALVSPTLSLMLIVIAIIFYFKNRKIAFMQKLMLGRSIQSPLEMTLLQILIGILGGLIASLLLSILGVTFENSSLIDVILTVSVFSVLYKNRFLKFPYIAALLGVIGVLVSKNTEYFGRGFSFSINLTSIIVLIGVFSIVEGILAMIDGDKGYLPIFTQKDGKLVGGFGFKRFWALPLCLLVVLGANSGNSIINEVKDLPQWLPFFNGDKARALMSVAALGTLAAYGATSYEGTTFTQSKRSKTITSGLINIAYGIVVIILAYLLKESLVFTIALIILIPLLYELRIRMELKLESLREPLYFSNDDEICILDVLPNSIAYKKGLRSGDKIVKINEEIPKNEKEVFMAIKRNFYGLDLEIRKNNGNIEKHTITGEDRGKQFGIVLVPKGISFDKEIDEFLEKLKKASKDEEVKNK
- protein production: failed

Sequence: MSALIDTWFLGCRAAATAVLYVLFAVVAGGAVSAARAATVAASAPAPVTVGSGKKAVRQGISLELLVKPTHAEDGFSAAVVEGAYADVSLKMTDAATGHPVTVMQPRVWIDLRKGTGDFREKQMACSDKVRTYLQGTLSFRPDIDLNSYFVLTLNNDASISVIDPIIGVAGYSQLYAMILLKRPGEDWVFSFDGKRLYVTMPKAGEVAEIDTDSLAVVRNIPAGAMPVRMAFQPDSRYLWVGNDSSDPARSGVTVIDPFSGTQAAFIQTGAGHHEIAFADDSRYAFVTNQQSGTLTIIDIQSLAPVKTLRLGDGPVSVAYSALSKCAHVVCEGDGNLLVVDGLSHEIISRKTFEPGFREVRFAPGDRWYFTVNGKNGQILVFDAAGNELLHSTVVAGRPEHVSFSTEFAYIRSLGTADVTLIPLAALGKAAILTPLVVSGGSRPPADSPLLPPTADPIVVTPEGNSVLIASPSDGAVVYYMEGMGVPMGSFKTYGRLPRAVNVINRQLRQNVPGVFSSRVKIPLAGTYDVAVLLDSPRIVQCFEFSADANPALQRLKTERPVMVEFVGSALRVEAGRESVVRFRVTDPVTHEPVADLRDLIVVTSLVPTGAWRQQLVSRPVGNGIYEVTFTARKVGIYSFNFAIPSLKVKLYQLAGMMIHAVETPAEAGSDVPAGQKKD
- protein production: failed

Sequence: MSRLEGKIAIVTGASSGIGRAAAALCTRGGKGRRYRPQRECTCGAYTRSPEGAVRRQRLPATWATKPCEALVELAVRRFGGLDTAFNNAGARCDGRDLVARRRLARDARYQSDAPSWRRNIRFRQLRHWAAVRSPTSSFVGHTAGFAGVAPYAASKAGDRTGAGAGGRTRRARHSRERAAAAAPTRLPISRTCRERRPRRAVSEGLHALKRIARPEEIAEAALYLAGRCLRDRRCAAGRRRRFGDEGV
- protein production: not failed

Sequence: MDLLAMNIPVSLQSKPPLWLLAELTYRCPLQCAYCSNPLDYAAVKQELSTDEWKDVFRQARAMGSVQLGFSGGEPLLRQDLSELIKYAHELGFYTNLITSGIGLTEQKIAEFSEAGLDHIQISFQASDPALSEILSGSRKAFQQKQAMALAVKKHRYPMVLNFVIHRFNIEQIDQIIELSLELNADYVELATCQFYGWAKLNQAALLPTPEQISYAQARVQAYRQYIDQHHLKTKLLLVAPDYYQERPKKCIGGWGQIFITVSPDGTVLPCQSAKDLPLEFPTIQDQSLKTIWNEAFAFNAFRGTDWMQEPCRSCPDKDKDLGGCRCQAYMLTKNMYATDPVCSKSPVHHQIVEARLQTQCSKPDISDLKLRNPQNSKLFFKRASDADSLL
- protein production: failed

Sequence: MNLSKFPVYVQAAILALVLALVGYLVAQALQFSLKAEVIFAVGLAIGGFVVPLFLNRAPAGVAELASSQETCTLYVGNLPYRANEIAVRELFAEQGQVISVRLMKDKATGKRRGFGFVEMPAADAAKAIAALNDKEYQQRTLKVREANDKRDKDEREGSEVDA
- protein production: failed

Sequence: MKISPLCPSCLLGRVYYEAKLVTDDEDLISQCVDESLKILAENYSSAPINAHLATRIHRRVYEILGVEDPYAEVKARANEVARQVLPLAKEIVEGSDDPFKTAVIVSIVGNNFDYGVQGHKVVEEEFRDFLKRKVQEGLKINDTERIKELSSGKVVYLTDNAGEIFFDTLLMKEIKRRCEKLTAVVRGRPIISDATIEDARLARVDKIADELLTNGKGAIGIIMDELPDETRKALEEADLIVAKGMANYECLSDGSLKPIAFLLTAKCEPVARDIGVNVGDMVAKVVE
- protein production: not failed
